Assay results from paper PMC12805836.
Where “and” joins values, the source holds several entries; their conditions need not be identical. Equal values may be shown once.

Tests used:
[1] = biological target: actinorhodopsin (ActR, ActRL06) from Nanopelagicus ca., produced in E. coli (Nanopelagicus ca.); assay: SEC; analytical size-exclusion chromatography of ActR at the neutral pH of the scramblase assays
[2] = biological target: actinorhodopsin (ActR, ActRL06) from Nanopelagicus ca., produced in E. coli (Nanopelagicus ca.); assay: SEC; analytical size-exclusion chromatography of ActR at low pH
[3] = biological target: actinorhodopsin (ActR, ActRL06) from Nanopelagicus ca., produced in E. coli (Nanopelagicus ca.); assay: negative stain electron microscopy; ActR from E. coli, purified through the metal affinity step, in elution buffer with DDM, pH 7.4, 8-240 ug/mL on grids, 2% uranyl acetate; preliminary single particle analysis

For “actinorhodopsin (ActR, ActRL06) from Nanopelagicus ca., produced in E. coli (natural protein)”, the stoichiometry N [1] was 5 and 3, the stoichiometry N [2] was 3 and the stoichiometry N [3] was 5.
